Target: the molecule itself
Assay: crystal structure; TMEM16K purified in UDM/CHS, crystallised in lipidic cubic phase (MAG 7.9; 0.1 M MES pH 6.0, 0.1 M NaCl, 0.1 M CaCl2, 30% PEG300) and by sitting drop vapour diffusion (0.1 M HEPES pH 7.0, 0.1 M calcium acetate, 22% PEG400); open groove conformation

B1: human TMEM16K (anoctamin-10), full length (natural protein, UniProt Q9NW15-1 1-660, looked up)
chain: MKVTLSALDTSESSFTPLVVIELAQDVKEETKEWLKNRIIAKKKDGGAQLLFRPLLNKYEQETLENQNLYLVGASKIRMLLGAEAVGLVKECNDNTMRAFTYRTRQNFKGFDDNNDDFLTMAECQFIIKHELENLRAKDEKMIPGYPQAKLYPGKSLLRRLLTSGIVIQVFPLHDSEALKKLEDTWYTRFALKYQPIDSIRGYFGETIALYFGFLEYFTFALIPMAVIGLPYYLFVWEDYDKYVIFASFNLIWSTVILELWKRGCANMTYRWGTLLMKRKFEEPRPGFHGVLGINSITGKEEPLYPSYKRQLRIYLVSLPFVCLCLYFSLYVMMIYFDMEVWALGLHENSGSEWTSVLLYVPSIIYAIVIEIMNRLYRYAAEFLTSWENHRLESAYQNHLILKVLVFNFLNCFASLFYIAFVLKDMKLLRQSLATLLITSQILNQIMESFLPYWLQRKHGVRVKRKVQALKADIDATLYEQVILEKEMGTYLGTFDDYLELFLQFGYVSLFSCVYPLAAAFAVLNNFTEVNSDALKMCRVFKRPFSEPSANIGVWQLAFETMSVISVVTNCALIGMSPQVNAVFPESKADLILIVVAVEHALLALKFILAFAIPDKPRHIQMKLARLEFESLEALKQQQMKLVTENLKEEPMESGKEKAT
notes: The tag was removed with TEV protease before size exclusion, so residues of the TEV site may remain at the C-terminus; Modelled residues: Ser14-Gln639 (LCP crystal), Ser13-Lys641 (2 mM Ca2+ cryo-EM); the purification is described as similar to that for crystallisation (Sf9); also called hTMEM16K; ANO10; source: Sf9 cells (baculovirus), purified in UDM/CHS (Talon resin, TEV cleavage, Superose 6 …)
For B1, the “stoichiometry N” value was 2.

Source: paper PMC6718402, “The structural basis of lipid scrambling and inactivation in the endoplasmic reticulum scramblase TMEM16K” (Nature Communications, 2019)
